# From paper PMC12416549 (2024)
# Numbering of substitutions follows the chain as printed. Names and notes keep the numbering of the source.
# T1: TNFR1 (Homo sapiens, UniProt P19438)
# T1 chain: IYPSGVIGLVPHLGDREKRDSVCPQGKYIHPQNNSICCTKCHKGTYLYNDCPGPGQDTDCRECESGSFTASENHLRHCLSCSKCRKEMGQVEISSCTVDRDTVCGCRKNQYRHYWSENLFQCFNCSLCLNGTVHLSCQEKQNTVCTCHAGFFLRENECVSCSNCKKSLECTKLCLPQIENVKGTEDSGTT
# B1: Y101K (designed binder)
# chain: SMEEEVEKAAKEYEKKKKEAIEKHLEKLKAKDKEAAERFLKELEEAAKEYAKDEAKTMSEEEAKRRAKKYKEKVLLSELSEEEQKEIKEAEEKLVRTILKKVEEAAK
# B2: K27G (designed binder)
# chain: B1 chain with K27G, K101Y
# B3: A55Q (designed binder)
# chain: B1 chain with A55Q, K101Y
# B4: E3W (designed binder)
# chain: B1 chain with E3W, K101Y
# B5: E104K (designed binder)
# chain: B1 chain with K101Y, E104K
# B6: L75Q (designed binder)
# chain: B1 chain with L75Q, K101Y
# B7: A35Q (designed binder)
# chain: B1 chain with A35Q, K101Y
# B8: K29I (designed binder)
# chain: B1 chain with K29I, K101Y
# B9: R65H (designed binder)
# chain: B1 chain with R65H, K101Y
# B10: K52N (designed binder)
# chain: B1 chain with K52N, K101Y
# B11: T57F (designed binder)
# chain: B1 chain with T57F, K101Y
# B12: E92Q (designed binder)
# chain: B1 chain with E92Q, K101Y
# B13: R66Y (designed binder)
# chain: B1 chain with R66Y, K101Y
# B14: K64M (designed binder)
# chain: B1 chain with K64M, K101Y
# B15: E81S (designed binder)
# chain: B1 chain with E81S, K101Y
# B16: E44C (designed binder)
# chain: B1 chain with E44C, K101Y
# B17: K16D (designed binder)
# chain: B1 chain with K16D, K101Y
# B18: T97C (designed binder)
# chain: B1 chain with T97C, K101Y
# B19: K15Q (designed binder)
# chain: B1 chain with K15Q, K101Y
# B20: K18A (designed binder)
# chain: B1 chain with K18A, K101Y
# B21: A67S (designed binder)
# chain: B1 chain with A67S, K101Y
# B22: K29Y (designed binder)
# chain: B1 chain with K29Y, K101Y
# B23: E14I (designed binder)
# chain: B1 chain with E14I, K101Y
# B24: A30E (designed binder)
# chain: B1 chain with A30E, K101Y
# B25: E60I (designed binder)
# chain: B1 chain with E60I, K101Y
# B26: K69T (designed binder)
# chain: B1 chain with K69T, K101Y
# B27: Y13G (designed binder)
# chain: B1 chain with Y13G, K101Y
# B28: M2Y (designed binder)
# chain: B1 chain with M2Y, K101Y
# B29: L43Y (designed binder)
# chain: B1 chain with L43Y, K101Y
# B30: K52Y (designed binder)
# chain: B1 chain with K52Y, K101Y
# B31: K68C (designed binder)
# chain: B1 chain with K68C, K101Y
# B32: D53A (designed binder)
# chain: B1 chain with D53A, K101Y
# B33: K56F (designed binder)
# chain: B1 chain with K56F, K101Y
# B34: L94Q (designed binder)
# chain: B1 chain with L94Q, K101Y
# B35: H24I (designed binder)
# chain: B1 chain with H24I, K101Y
# B36: E34D (designed binder)
# chain: B1 chain with E34D, K101Y
# B37: T57P (designed binder)
# chain: B1 chain with T57P, K101Y
# B38: E49G (designed binder)
# chain: B1 chain with E49G, K101Y
# B39: K23D (designed binder)
# chain: B1 chain with K23D, K101Y
# B40: R65V (designed binder)
# chain: B1 chain with R65V, K101Y
# B41: R66A (designed binder)
# chain: B1 chain with R66A, K101Y
# B42: I21Q (designed binder)
# chain: B1 chain with I21Q, K101Y
# B43: M2D (designed binder)
# chain: B1 chain with M2D, K101Y
# Target: T1, TNFR1
# Test: yeast display SC50
binder,measurement,value
B1,apparent Kd (screen),0.446 nM
B2,apparent Kd (screen),0.79 nM
B3,apparent Kd (screen),1.54 nM
B4,apparent Kd (screen),22.2 nM
B5,apparent Kd (screen),0.446 nM
B6,apparent Kd (screen),0.49 nM
B7,apparent Kd (screen),0.869 nM
B8,apparent Kd (screen),1.54 nM
B9,apparent Kd (screen),1.54 nM
B10,apparent Kd (screen),0.869 nM
B11,apparent Kd (screen),0.0729 nM
B12,apparent Kd (screen),6.43 nM
B13,apparent Kd (screen),13.8 nM
B14,apparent Kd (screen),0.653 nM
B15,apparent Kd (screen),0.79 nM
B16,apparent Kd (screen),0.446 nM
B17,apparent Kd (screen),0.539 nM
B18,apparent Kd (screen),0.79 nM
B19,apparent Kd (screen),0.956 nM
B20,apparent Kd (screen),0.79 nM
B21,apparent Kd (screen),1.54 nM
B22,apparent Kd (screen),0.956 nM
B23,apparent Kd (screen),5.84 nM
B24,apparent Kd (screen),0.277 nM
B25,apparent Kd (screen),0.49 nM
B26,apparent Kd (screen),2.05 nM
B27,apparent Kd (screen),2.48 nM
B28,apparent Kd (screen),0.49 nM
B29,apparent Kd (screen),5.84 nM
B30,apparent Kd (screen),2.48 nM
B31,apparent Kd (screen),3 nM
B32,apparent Kd (screen),1.27 nM
B33,apparent Kd (screen),3.63 nM
B34,apparent Kd (screen),1.16 nM
B35,apparent Kd (screen),2.73 nM
B36,apparent Kd (screen),0.718 nM
B37,apparent Kd (screen),6.43 nM
B38,apparent Kd (screen),9.41 nM
B39,apparent Kd (screen),0.49 nM
B40,apparent Kd (screen),1.4 nM
B41,apparent Kd (screen),20.2 nM
B42,apparent Kd (screen),0.49 nM
B43,apparent Kd (screen),0.446 nM
